Assay results published in publication doi:10.1101/636423.

How the values were obtained:
[1] = target: whole intracellular region of rat PTPRZ (rat PTPRZ-ICR) (rat) (UniProt Q62656); assay: inhibition of PTPase catalytic activity
[2] = target: whole intracellular region of rat PTPRZ (rat PTPRZ-ICR) (rat) (UniProt Q62656); assay: native MS

Chain of F2Pmp-GIT1_(550–556), non-hydrolyzable pTyr mimetic (F2Pmp)-containing substrate-mimetic inhibitor peptide (Q9Z272 whole entry, looked up, tested part not stated): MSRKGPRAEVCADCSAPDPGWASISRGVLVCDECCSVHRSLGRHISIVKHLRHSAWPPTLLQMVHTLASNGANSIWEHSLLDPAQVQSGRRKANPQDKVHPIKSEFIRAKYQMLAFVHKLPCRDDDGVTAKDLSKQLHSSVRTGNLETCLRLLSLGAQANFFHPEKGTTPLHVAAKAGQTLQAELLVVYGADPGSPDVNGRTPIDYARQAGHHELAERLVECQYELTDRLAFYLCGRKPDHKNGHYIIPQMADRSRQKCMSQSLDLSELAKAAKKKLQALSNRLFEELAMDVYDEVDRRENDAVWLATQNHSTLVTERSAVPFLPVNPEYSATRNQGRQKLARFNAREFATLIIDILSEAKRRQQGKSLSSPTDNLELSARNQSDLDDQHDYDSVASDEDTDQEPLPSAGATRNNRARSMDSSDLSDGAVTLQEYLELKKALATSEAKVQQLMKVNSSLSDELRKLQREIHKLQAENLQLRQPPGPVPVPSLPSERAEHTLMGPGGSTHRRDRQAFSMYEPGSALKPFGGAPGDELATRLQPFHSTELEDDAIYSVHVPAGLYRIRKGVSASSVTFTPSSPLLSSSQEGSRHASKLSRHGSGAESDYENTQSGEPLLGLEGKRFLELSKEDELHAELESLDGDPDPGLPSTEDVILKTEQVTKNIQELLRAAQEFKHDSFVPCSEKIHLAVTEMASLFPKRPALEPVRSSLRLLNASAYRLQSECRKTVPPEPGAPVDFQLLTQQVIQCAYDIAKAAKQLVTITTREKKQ
Chain of whole intracellular region of rat PTPRZ (rat PTPRZ-ICR) (rat) (Q62656 1699-2316): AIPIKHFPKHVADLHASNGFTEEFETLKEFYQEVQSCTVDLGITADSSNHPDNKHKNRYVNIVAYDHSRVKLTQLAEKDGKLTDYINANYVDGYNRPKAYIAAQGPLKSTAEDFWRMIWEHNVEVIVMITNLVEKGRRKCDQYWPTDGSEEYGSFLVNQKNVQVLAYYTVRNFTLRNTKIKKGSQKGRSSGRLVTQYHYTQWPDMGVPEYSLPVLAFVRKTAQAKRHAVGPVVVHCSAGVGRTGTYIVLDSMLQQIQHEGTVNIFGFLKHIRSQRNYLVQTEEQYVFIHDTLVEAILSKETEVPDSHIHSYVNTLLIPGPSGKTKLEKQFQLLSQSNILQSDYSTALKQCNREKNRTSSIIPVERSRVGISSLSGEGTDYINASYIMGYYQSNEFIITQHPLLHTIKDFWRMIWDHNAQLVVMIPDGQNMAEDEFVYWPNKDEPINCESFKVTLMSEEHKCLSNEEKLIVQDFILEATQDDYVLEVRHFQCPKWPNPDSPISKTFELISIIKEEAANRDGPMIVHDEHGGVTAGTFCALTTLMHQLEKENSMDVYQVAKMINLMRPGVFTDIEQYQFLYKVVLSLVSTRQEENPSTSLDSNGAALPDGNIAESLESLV

Which Ki [1] does the source give for “F2Pmp-GIT1_(550–556), non-hydrolyzable pTyr mimetic (F2Pmp)-containing substrate-mimetic inhibitor peptide (from UniProt Q9Z272 550-556)” here?
The Ki was 3.1 µM.

And the stoichiometry N [2]?
The stoichiometry N was 1.
